Reference: paper PMC5645147, “Binding of a C-type lectin’s coiled-coil domain to the Domeless receptor directly activates the JAK/STAT pathway in the shrimp immune response to bacterial infection”

Biological target: T1, native STAT, LPS-challenged shrimp (Marsupenaeus japonicus (kuruma shrimp), UniProt D0VYJ1 1-801)
T1 sequence: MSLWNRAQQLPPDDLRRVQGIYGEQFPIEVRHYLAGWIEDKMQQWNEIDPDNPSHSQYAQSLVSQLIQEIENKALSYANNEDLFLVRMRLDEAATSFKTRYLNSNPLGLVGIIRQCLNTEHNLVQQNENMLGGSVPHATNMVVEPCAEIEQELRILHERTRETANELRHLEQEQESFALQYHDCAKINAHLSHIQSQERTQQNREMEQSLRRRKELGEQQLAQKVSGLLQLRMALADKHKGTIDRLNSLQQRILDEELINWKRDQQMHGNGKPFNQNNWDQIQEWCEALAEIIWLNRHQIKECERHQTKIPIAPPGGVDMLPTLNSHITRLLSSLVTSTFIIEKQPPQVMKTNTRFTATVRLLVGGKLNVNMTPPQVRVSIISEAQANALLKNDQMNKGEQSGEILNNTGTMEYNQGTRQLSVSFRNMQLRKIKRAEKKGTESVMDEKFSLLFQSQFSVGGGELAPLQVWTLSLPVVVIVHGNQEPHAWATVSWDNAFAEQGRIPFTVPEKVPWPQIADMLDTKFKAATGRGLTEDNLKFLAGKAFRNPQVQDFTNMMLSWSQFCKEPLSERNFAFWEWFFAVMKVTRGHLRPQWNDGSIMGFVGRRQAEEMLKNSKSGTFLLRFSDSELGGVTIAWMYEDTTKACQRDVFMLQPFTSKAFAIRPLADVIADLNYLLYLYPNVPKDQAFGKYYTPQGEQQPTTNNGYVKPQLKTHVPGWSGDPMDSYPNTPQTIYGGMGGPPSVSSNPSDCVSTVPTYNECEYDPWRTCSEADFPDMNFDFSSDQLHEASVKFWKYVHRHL
Assay: EMSA; STAT from LPS-injected shrimp; binding increased; 2 ug protein, 20 fmol Dig-probe, Beyotime EMSA binding buffer (from 5x; composition and pH not stated), 20 min with probe, room temperature (stated for competition); 6% PAGE, 0.5x TBE
Conditions: chain copies: 2, blunt

B1: CruI-1 promoter STAT probe (dsDNA)
DNA 1: GCGTAAGGTTTTCTTGGAATA
DNA 2: TATTCCAAGAAAACCTTACGC
B1: binds.
